# Test results reported in paper PMC12276895 (2025).
# B1: nTrimer2 homotrimeric miniprotein (designed binder)
# chain: SPVKRFVREVLEEAEEAYEKGDRRQFEELLWLAEWAARDANDEELEEEIREFEKEVKGSGKRIDEIESKLKHLEEFTTHLIKLMETMLELLKLVSDGKSDSEEYKELLEKAEEYLKQATEAAKKI
# B2: nTrimer5 homotrimeric miniprotein (designed binder)
# chain: SPVKRFVREVLEEAEEAYEKGDRRQFEELLWLAEWAARDANDEELEEEIREFEKEVKGSGMTRLEQLLAQGVDPFEVLREKIEKLKEIWKKYEEAKGEEKERYRDELLKLMMEVLELMVELLSRR
# B3: nTrimer1 homotrimeric miniprotein (cb3-GSG-Trimer1) (designed binder)
# chain: SPVKRFVREVLEEAEEAYEKGDRRQFEELLWLAEWAARDANDEELEEEIREFEKEVKGSGSEALEELEKALRELKKSTDELERSTEELEKNPSEDALVENNRLIVENNKIIVEVLRIIAKVLK
# Molecular target: prefusion biotinylated MERS-CoV EMC/2012 S ectodomain trimer (MERS-CoV EMC/2012, UniProt K9N5Q8 18-1296)
# Test: SPR
row,Binder,Kd [nM]
1,B1,0.027
2,B2,0.032
3,B3,0.021
